According to patent US20100227805A1 (RAPPAPORT FAMILY INSTITUTE FOR RESEARCH IN THE MEDICAL …, published 2010):

Assays:
[1] = target: T1, murine MIP-1β (CCL4) (murine, UniProt P14097 24-92); assay: direct ELISA, chemokine coated at 10 ng/well, fusion at 10-1000 ng/ml
T1 construct: Bought recombinant chemokine; also called mCCL4; murine CCL4
T1 sequence (looked up): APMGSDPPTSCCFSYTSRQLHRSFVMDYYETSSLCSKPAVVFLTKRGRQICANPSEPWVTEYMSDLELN
Protocol: (§1) The binding specificity of the different extracellular domains (EC1, EC2, EC3 and N) of the murine CCR5-IgG fusion proteins to various commercially available murine recombinant […] chemokines (R&D Systems, Minneapolis, N. Mex. including MIP-1α (CCL3), (CCL4) and RANTES (CCL5) was determined by direct ELISA as follows: 96-well ELISA plates (Nunc, Roskilde, Denmark) were coated with 10 ng/well of murine CCL3, CCL4 or […] and blocked with 1% BSA in PBS. Wells were washed and incubated with 10 ng/ml, 100 ng/ml or 1000 ng/ml CCR5-IgG (EC1, EC2, EC3, N) at a concentration overnight. Wells were washed and the presence of CCR5-IgG was detected with goat anti mouse IgG-HRP (Jackson ImmunoResearch lot no. 58734). Results are shown as O.D. reading at 450 nm.

[2] = target: T2, murine MIP-1α (CCL3) (murine, UniProt P10855 24-92); assay: as above
T2 construct: Bought recombinant chemokine; also called mCCL3; murine CCL3
T2 sequence (looked up): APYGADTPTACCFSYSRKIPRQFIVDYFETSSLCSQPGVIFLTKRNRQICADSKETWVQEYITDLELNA
Protocol: as §1

[3] = target: T3, murine RANTES (CCL5) (murine, UniProt P30882 24-91); assay: as above
T3 construct: Bought recombinant chemokine; also called mCCL5; murine CCL5
Protocol: as §1

[4] = target: T4, human RANTES (CCL5) (human, UniProt P13501 24-91); assay: direct ELISA, chemokine coated at 10 ng/well, fusion at 1 µg/well
T4 construct: Bought recombinant chemokine; also called human CCL5
T4 sequence (looked up): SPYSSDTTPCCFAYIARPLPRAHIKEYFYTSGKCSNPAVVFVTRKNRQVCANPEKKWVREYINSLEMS
Protocol: (§2) The binding specificity of the murine CCR5-IgG soluble receptor to various commercially available human recombinant chemokines (R&D Systems, Minneapolis, N. Mex.) MIP-1α (CCL3), MIP-1β (CCL4) and RANTES as well as the murine recombinant chemokines (R&D Systems, Minneapolis, N. Mex.) MIP-1α (CCL3) and ITAC was determined by direct ELISA as follows: 96-well ELISA plates (Nunc, Roskilde, Denmark) were coated with 10 ng/well of human CCL3, CCL4, CCL5, as well as murine CCL3 or ITAC, and blocked with 1% BSA in PBS. Wells were washed and incubated with 1 μg/well CCR5(EC2)-IgG overnight. Wells were washed and the presence of CCR5(EC2)-IgG was detected with goat anti mouse IgG-HRP antibody (Jackson ImmunoResearch lot no. 58734). Results are shown as O.D. reading at 450 nm.

[5] = target: T5, human MIP-1β (CCL4) (human, UniProt P13236 24-92); assay: as above
T5 construct: Bought recombinant chemokine; also called human CCL4
T5 sequence (looked up): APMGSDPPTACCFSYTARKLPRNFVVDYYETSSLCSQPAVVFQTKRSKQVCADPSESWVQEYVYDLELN
Protocol: as §2

Measured: binding result

T3 sequence (P30882 24-91 limits assumed): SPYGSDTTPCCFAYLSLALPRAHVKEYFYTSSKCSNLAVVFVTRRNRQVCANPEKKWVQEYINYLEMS

B1: mCCR5(EC2)-IgG (Fc fusion)
chain: DAAQPARRARRTKLRSQKEGFHYTCSPHFPHTQYHFWKSFQTLKLEVPRDCGCKPCICTVPEVSSVFIFPPKPKDVLTITLTPKVTCVVVDISKDDPEVQFSWFVDDVEVHTAQTQPREEQFNSTFRSVSELPIMHQDCLNGKEFKCRVNSAAFPAPIEKTISKTKGRPKAPQVYTIPPPKEQMAKDKVSLTCMITDFFPEDITVEWQWNGQPAENYKNTQPIMDTDGSYFVYSKLNVQKSNWEAGNTFTCSVLHEGLHNHHTEKSLSHSPGKGPEQKLISEEDLNSAVDHHHHHH
notes: It may include the vector's Ig-kappa leader and tags; also called murine CCR5(EC2)-IgG; CCR5-Ig(E2)
binds: all assays above
